This is an account of results in publication PMC3926522.

Data set [1] deals with T1, thrombin (human, UniProt P00734;P00734 315-363;364-622). Briefly: whispering gallery mode microsphere resonator.
For data set [2], the target named is T1, thrombin. Briefly: whispering gallery mode microsphere resonator. This is another data set of the same source.

B1: non-thrombin (non-aptamer) oligonucleotide (ssDNA)
DNA: TATGAATTCAATCCGTCGAGCAGAGTT
modifications: 5' amino
For the molecule B1, the binding result in the data set with thrombin [1] is recorded as “no binding”.

B2: anti-thrombin aptamer oligonucleotide (structured_DNA)
DNA: CCAACCCAACGGTTGGTGTGGTTGG
modifications: 5' amino
In the data set with thrombin [2], B2 displayed a dissociation constant Kd of roughly 1 µM.

The term Kd denotes the free concentration of one partner at which half of the binding sites on the other are occupied at equilibrium, for simple one-to-one binding. High values mean weaker binding, low ones tighter binding.
